From US20210188980A1 (SHANGHAI EPIMAB BIOTHERAPEUTICS, published 2021) come the findings set out here.

Assay [1] has as its target T1, human LAG-3 expressed on cells (human, UniProt P18627 23-525).
T1 construct: whole, on cells; also called HEK 293F cells expressing human LAG-3; T hybridoma-huLAG-3 cells
T1 sequence (looked up): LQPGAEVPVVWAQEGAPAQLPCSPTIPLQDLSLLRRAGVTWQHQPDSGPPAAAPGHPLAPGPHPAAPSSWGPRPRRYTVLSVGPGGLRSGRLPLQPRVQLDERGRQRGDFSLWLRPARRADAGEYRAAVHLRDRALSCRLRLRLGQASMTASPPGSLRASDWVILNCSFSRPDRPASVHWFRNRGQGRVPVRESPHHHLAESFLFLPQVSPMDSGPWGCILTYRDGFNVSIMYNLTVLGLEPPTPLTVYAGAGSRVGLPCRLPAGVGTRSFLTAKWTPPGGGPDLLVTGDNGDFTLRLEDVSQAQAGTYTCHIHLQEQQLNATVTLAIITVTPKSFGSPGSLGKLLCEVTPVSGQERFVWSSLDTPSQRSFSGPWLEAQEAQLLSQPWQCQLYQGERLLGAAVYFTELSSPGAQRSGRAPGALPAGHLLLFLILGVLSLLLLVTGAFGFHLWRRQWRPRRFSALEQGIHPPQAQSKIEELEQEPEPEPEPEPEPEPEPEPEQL
Put plainly: flow cytometry, biotinylated antibody + FITC-streptavidin, CD3 T cells; panel 'PBMC stimulation for 72h, PD1 antibody treated group' (cells pre-treated with unlabelled HumAb713-7). On the procedure:
(§1) To further evaluate the cell surface binding ability of FIT107-1-7b-1, the parental antibodies HumAb713-7, HumAb747V-67, and the bispecific FIT-Ig FIT107-1-7b-1 were biotinylated with biotin reagent (Sigma, Cat. No. S3259). For PBMC without stimulation, PBMCs were re-suspended at 5×10⁶ cells/mi. For PD-1 antibody (HumAb713-7) or LAG-3 antibody (HumAb747V-67) testing, 100 μg/ml of antibody were added and the reaction mixture allowed to incubate at 37° C. for 40 minutes separately, followed by two washes with FACS buffer. Then 100 μl, 5×10⁵ PBMC/well (untreated group, anti-PD-1 antibody treated group and anti-LAG-3 antibody treated group) were seeded into wells of 96-well plate. Biotinylated HumAb713-7, HumAb747V-67 and FIT107-1-7b-1 were added and incubated at 37° C. for 40 minutes (final working concentration starting from 100 nM with 3-fold serial dilution) followed by washing with FACS buffer twice. FITC-streptavidin and BV421-anti human-CD3 antibody were added and the assay plate incubated at 4° C. for 30 minutes, followed by washing with FACS buffer twice. The plate was analyzed with a Beckman Coulter CytoFlex flow cytometer, PBMC stimulation groups were stimulated with anti-CD3 plus anti-CD28 antibody for 72 hours, to induce PD-1 and LAG-3 expression on T cells. […]
(In flow cytometry, cells or beads pass a laser one at a time.)

The target of assay [2] is T2, recombinant human LAG-3-his protein (Novoprotein) (human, UniProt P18627 23-450).
T2 construct: Bought; also called huLAG-3; not shown: His tag
T2 sequence (looked up): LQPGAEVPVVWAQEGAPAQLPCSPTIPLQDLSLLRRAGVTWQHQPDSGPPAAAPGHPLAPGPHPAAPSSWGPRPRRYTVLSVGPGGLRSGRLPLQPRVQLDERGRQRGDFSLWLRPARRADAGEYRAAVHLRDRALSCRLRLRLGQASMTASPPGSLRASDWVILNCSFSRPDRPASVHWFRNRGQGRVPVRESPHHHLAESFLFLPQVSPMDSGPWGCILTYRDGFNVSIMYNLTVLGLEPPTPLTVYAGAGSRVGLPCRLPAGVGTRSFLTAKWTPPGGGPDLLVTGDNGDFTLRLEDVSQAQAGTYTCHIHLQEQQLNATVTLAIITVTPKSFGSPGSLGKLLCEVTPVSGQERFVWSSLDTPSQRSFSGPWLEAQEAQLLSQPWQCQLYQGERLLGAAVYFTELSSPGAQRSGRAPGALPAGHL
The assay can be described thus: BLI Octet, Ab on AHC sensor, huLAG-3-his; test group 2. On the procedure: All 9 humanized antibodies (Table 25) and a chimeric antibody having the parental murine VH and VL domains (mAb747c) were ranked by dissociation rate constant (koff). Briefly, antibodies were characterized for affinities and binding kinetics by Octet RED96 biolayer interferometry (Pall FortéBio LLC). Antibodies were captured by Anti-HIgG Fc Capture (AHC) Biosensors (Pall) at a concentration of 100 nM for 30 seconds. Sensors were then dipped into running buffer (1× pH7.2 PBS, 0.05% Tween 20, 0.1% BSA) for 60 seconds to check baseline. Binding was measured by dipping sensors into a single concentration of recombinant human LAG-3-his protein (Novoprotein). Dissociation was followed by dipping sensors into running buffer for 1200 seconds. The association and dissociation curves were fitted to a 1:1 Langmuir binding model using FortéBio Data Analysis software (Pall).
All 13 humanized antibodies (Table 39) and chimeric anti-LAG-3 antibody mAb747c having the parental murine VH and VL domains were ranked by dissociation rate constant (koff) in the same manner described in Example 9.1 supra. In each test group, the off-rates of antibodies were able to be compared with that of mAb747c. The off-rate ratios were calculated by the off-rate of antibody to that of mAb747c of its group and were compared all together. The lower the ratio was, the higher was the affinity of the antibody.
A general note: Biolayer interferometry detects binding as a change in optical thickness at a sensor tip.

Assay [3] has as its target T1, human LAG-3 expressed on cells. Put plainly: flow cytometry, biotinylated antibody + FITC-streptavidin, CD3 T cells; panel 'PBMC stimulation for 72h, untreated group' (anti-CD3 plus anti-CD28). On the procedure:
as §1

Assay [4] has as its target T3, human PD-1 expressed on cells (human, UniProt Q15116 25-288). Put plainly: cell-based or functional assay.
Assay [5] deals with T1, human LAG-3 expressed on cells. Put plainly: cell-based or functional assay.
Assay [6] concerns the target T3, human PD-1 expressed on cells. Put plainly: flow cytometry, biotinylated antibody + FITC-streptavidin, CD3 T cells; panel 'PBMC without stimulation, untreated group'. As to the method: as §1
The target is the same in assay [7]. Put plainly: cell RBA FACS; competitor PD-L1/Fc.
Assay [8] deals with T4, human PD-1-His protein (human, UniProt Q15116 25-167, limits assumed).
T4 construct: also called huPD-1; not shown: His tag
The assay can be described thus: SPR Biacore.

Assay [9] has as its target T3, human PD-1 expressed on cells. Put plainly: cell RBA FACS; competitor PD-L2/Fc.
Assay [10] has the same target. The assay can be described thus: flow cytometry, biotinylated antibody + FITC-streptavidin, CD3 T cells; panel 'PBMC stimulation for 72h, Lag3 antibody treated group' (cells pre-treated with unlabelled HumAb747V-67). On the procedure:
as §1

Assay [11] shares this target. The assay can be described thus: flow cytometry, biotinylated antibody + FITC-streptavidin, CD3 T cells; panel 'PBMC stimulation for 72h, untreated group' (anti-CD3 plus anti-CD28). As to the method:
as §1

For assay [12] the target is unchanged. The assay can be described thus: flow cytometry, biotinylated antibody + FITC-streptavidin, CD3 T cells; panel 'PBMC without stimulation, Lag3 antibody treated group' (cells pre-treated with unlabelled HumAb747V-67). As to the method: as §1
The target of the next assay is Cyno LAG-3-His (cynomolgus). Put plainly: BLI Octet, FIT-Ig captured, antigen analyte.
The target in the next assay is Cyno PD-1-His (cynomolgus, UniProt B0LAJ3 25-170). The assay can be described thus: BLI Octet, FIT-Ig captured, antigen analyte.
In assay [13] the target is T2, recombinant human LAG-3-his protein …. Put plainly: BLI Octet, FIT-Ig captured, antigen analyte.
Assay [14] has as its target T4, human PD-1-His protein. The assay can be described thus: BLI Octet, FIT-Ig captured, antigen analyte.
The target of assay [15] is T1, human LAG-3 expressed on cells. Put plainly: flow cytometry, biotinylated FIT-Ig + FITC-streptavidin, CD3 T cells; panel 'PBMC stimulation for 72h, PD1 antibody treated group'; PD-1 pre-blocked with unlabelled HumAb713-7, so the signal is laid to LAG-3. As to the method:
as §1

Chain of Cyno PD-1-His (B0LAJ3 entry or part of it limits assumed): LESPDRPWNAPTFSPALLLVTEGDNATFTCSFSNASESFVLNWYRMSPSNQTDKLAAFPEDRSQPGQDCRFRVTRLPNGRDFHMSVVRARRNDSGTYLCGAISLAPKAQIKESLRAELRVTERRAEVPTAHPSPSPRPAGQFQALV
T3 sequence (Q15116 25-288): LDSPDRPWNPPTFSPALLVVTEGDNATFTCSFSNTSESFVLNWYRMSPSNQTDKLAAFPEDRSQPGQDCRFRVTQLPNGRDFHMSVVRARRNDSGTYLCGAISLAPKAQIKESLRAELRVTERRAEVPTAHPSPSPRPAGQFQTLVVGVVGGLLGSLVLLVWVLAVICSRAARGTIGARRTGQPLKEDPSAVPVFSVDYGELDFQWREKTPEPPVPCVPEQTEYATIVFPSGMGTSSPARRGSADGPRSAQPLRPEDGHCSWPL
T4 sequence (Q15116 25-167 limits assumed): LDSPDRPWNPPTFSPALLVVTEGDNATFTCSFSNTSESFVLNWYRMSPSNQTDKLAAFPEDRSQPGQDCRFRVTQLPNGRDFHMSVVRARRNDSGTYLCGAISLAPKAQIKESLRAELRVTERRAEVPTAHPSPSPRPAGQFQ

B1: HumAb747V-67 (antibody, human IgG1, V domains shown)
VH: EVQLVQSGAEVKKPGATVKLSCTASGFNIKDDYMHWVKQRPEQGLDWIGWIVPENGNTVYASKFQGKATITADTSTNTAYLELSSLRSEDTAVYYCTVYGDYWGQGTTVTVSS
VL: DIQMTQSPSSLSASVGDRVTITCRASQEISGYLSWLQQKPGGAIKRLIYAASALDSGVPSRFSGSRSGSDYTLTISSLQPEDFADYYCLQYASYPLTFGQGTKLELK
notes: engineered HumAb747-60 variant; human IgG1/kappa constant domains
For orientation: EC50 (read off the curve) means the concentration at which the effect is half-maximal. In general, koff refers to a measure of how fast the partners let go of each other. For the molecule B1, the half-maximal effective concentration (EC50 (read off the curve)) in assay [1] was in the range of 1 to 2 nM. Moreover, in [2], the dissociation rate constant (koff) is 0.000319 s⁻¹ and the “off-rate ratio to that of mAb747c” value came to 47%. Moreover, the concentration giving a half-maximal response (EC50 (read off the curve)) in assay [3] was roughly 1 nM.

B2: FIT107-1-2a (bispecific antibody, human IgG1, kappa, L234A L235A)
chain 1: not shown
chain 2: EVKLVESGGGLVKPGGSLKLSCAASGFTFSFYTMSWVRQTPEKRLEWVATISGGGRDTYYPDSVKGRFTISRDNAKNTLYLHMSSLRSEDTALYYCAGQGGNYLFAYWGQGTLVTVSAASTKGPSVFPLAPSSKSTSGGTAALGCLVKDYFPEPVTVSWNSGALTSGVHTFPAVLQSSGLYSLSSVVTVPSSSLGTQTYICNVNHKPSNTKVDKKVEPKSC
chain 3: DIQMTQSPSSLSASLGERVSLNCRASQEISGYLSWLQQKSDGTIKRLIYAASTLDSGVPKRFSGSRSGSDYSLTISSLESEDFADYYCLQYASYPLTFGAGTKLELKRTVAAPSVFIFPPSDEQLKSGTASVVCLLNNFYPREAKVQWKVDNALQSGNSQESVTEQDSKDSTYSLSSTLTLSKADYEKHKVYACEVTHQGLSSPVTKSFNRGEC
As to B2, the “MLR, IFN-γ production, EC50” value in [4] and in assay [5] was 0.508 nM each time.

B3: HumAb713-7 (antibody, human IgG1, kappa, L234A L235A, V domains shown)
VH: EVQLVESGGGLVQPGGSLRLSCAASGFTSSDYGMHWVRQAPGKGLEWVSYISSGSYTIYYADTVKGRFTISRDNAKNSLYLQMNSLRDEDTAVYYCAKRGGSSHVNVMDYWGQGTTVTVSS
VL: DIQMTQSPSSLSASVGDRVTITCKASDHINNWLAWYQQKPGKAPKLLIYGATSLETGVPSRFSGSGSGTDYTFTISSLQPEDIATYYCQQYWSPPYTFGGGTKVEIKR
notes: humanized mAb713
In general, IC50 refers to the point on the concentration scale where inhibition reaches its midpoint. The Kd is the constant that tells how readily two partners part at equilibrium. In general, kon refers to the second-order rate constant of association. With B3, the “EC50 (read off the curve)” value in assay [6] was roughly 3 nM; in [10], roughly 3 nM; in assay [11], roughly 2 nM; in assay [12] it was roughly 3 nM. Further, the IC50 in [7] was 0.76 nM; in [9], 1.4 nM. In the assay with human PD-1-His protein [8], this molecule showed an equilibrium dissociation constant (Kd) of 2.83 nM. The koff in the assay with human PD-1-His protein [8] stood at 0.00035 s⁻¹. Further, the association rate constant (kon) with human PD-1-His protein [8] came to 124000 M⁻¹ s⁻¹.

B4: FIT107-1-7b-1 (bispecific antibody, human IgG1, kappa, L234A L235A)
chain 1: not shown
chain 2: EVQLVQSGAEVKKPGATVKLSCTASGFNIKDDYMHWVKQRPEQGLDWIGWIVPENANTVYASKFQGKATITADTSTNTAYLELSSLRSEDTAVYYCTVYGDYWGQGTTVTVSSASTKGPSVFPLAPSSKSTSGGTAALGCLVKDYFPEPVTVSWNSGALTSGVHTFPAVLQSSGLYSLSSVVTVPSSSLGTQTYICNVNHKPSNTKVDKKVEPKSC
chain 3: not shown
notes: FIT-Ig hexamer; outer Fab anti-LAG-3 (HumAb747V-67 with VH G55A), inner Fab anti-PD-1 (HumAb713-7); also called FIT107-7b-1
As to B4, the dissociation constant Kd was determined as 0.123 nM in the assay with Cyno LAG-3-His, 3.61 nM with Cyno PD-1-His, 1.22 nM in assay [13] and 10.4 nM with human PD-1-His protein [14]. Also, the koff in the assay with Cyno LAG-3-His was found to be 6.36e-05 s⁻¹; with Cyno PD-1-His, 0.000775 s⁻¹; in [13] it was 0.000243 s⁻¹; in the assay with human PD-1-His protein [14], 0.000935 s⁻¹. In addition, the kon was 519000 M⁻¹ s⁻¹ with Cyno LAG-3-His, 215000 M⁻¹ s⁻¹ with Cyno PD-1-His, 200000 M⁻¹ s⁻¹ in [13] and 89600 M⁻¹ s⁻¹ with human PD-1-His protein [14]. The “EC50 (read off the curve)” value in assay [15] is roughly 1 nM.
